The values below come from publication PMC3030368.

As a reminder, the Kd is the constant that tells how readily two partners part at equilibrium. A higher Kd goes with lower affinity.

For one data set, the target named is T1, Nab3 RRM (Saccharomyces cerevisiae, UniProt P38996 321-415).
T1 sequence: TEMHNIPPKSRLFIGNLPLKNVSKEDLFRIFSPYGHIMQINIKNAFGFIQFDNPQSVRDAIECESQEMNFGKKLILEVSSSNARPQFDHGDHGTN
The data set can be described thus: fluorescence anisotropy. A general note: Polarisation of emitted light reports the rotation of a fluorescent probe.

For the next data set, the target named is T2, Nrd1 RRM (UniProt P53617 340-410).
T2 sequence: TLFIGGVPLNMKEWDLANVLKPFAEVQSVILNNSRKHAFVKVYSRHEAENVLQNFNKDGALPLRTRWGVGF
As to the kind of experiment: fluorescence anisotropy.

Turning to UCUU (ssRNA) [UCUU (FA)], the binding signal with Nab3 RRM was ~10 fold weaker than snR47 (1 order of magnitude; Kd only in figure). In the data set with Nrd1 RRM, GUAA (ssRNA) gave a Kd of 66 ± 1 µM. Moreover, the binding signal with Nab3 RRM was > 6 fold lower affinity than UCUU.
